Numbered stars: 1 amine (or outer) side, 2 acyl side, 3 side chain; on linkers, the order of the positions; unused ones are H or OH. Bridge positions count the residues as written; N and C are the ends. Square brackets hold non-standard residues; d marks the D form. Peptide text beside a SMILES is read from it. * marks the point of attachment. Ala(piperidin-4-yl) = O=C([C@H](CC1CCN([*:3])CC1)N[*:1])[*:2]; DOTA = O=C(O)CN1CCN(CC(=O)O)CCN(CC(=O)*)CCN(CC(=O)O)CC1; Phe(4-CH2NH2) = NCc1ccc(C[C@H](N)C(=O)O)cc1; 1Nal = N[C@@H](Cc1cccc2ccccc12)C(=O)O; 2Nal = N[C@@H](Cc1ccc2ccccc2c1)C(=O)O; tBuAla = CC(C)(C)C[C@H](N)C(=O)O; dAllylGly = C=CC[C@@H](N)C(=O)O; AllylGly = C=CC[C@H](N)C(=O)O; αMeP = C[C@@]1(C(=O)O)CCCN1
T1: human DLL3 (Homo sapiens, UniProt Q9NYJ7)
T1 construct: biotin (biotinylated)
T1 sequence (Q9NYJ7 27-618): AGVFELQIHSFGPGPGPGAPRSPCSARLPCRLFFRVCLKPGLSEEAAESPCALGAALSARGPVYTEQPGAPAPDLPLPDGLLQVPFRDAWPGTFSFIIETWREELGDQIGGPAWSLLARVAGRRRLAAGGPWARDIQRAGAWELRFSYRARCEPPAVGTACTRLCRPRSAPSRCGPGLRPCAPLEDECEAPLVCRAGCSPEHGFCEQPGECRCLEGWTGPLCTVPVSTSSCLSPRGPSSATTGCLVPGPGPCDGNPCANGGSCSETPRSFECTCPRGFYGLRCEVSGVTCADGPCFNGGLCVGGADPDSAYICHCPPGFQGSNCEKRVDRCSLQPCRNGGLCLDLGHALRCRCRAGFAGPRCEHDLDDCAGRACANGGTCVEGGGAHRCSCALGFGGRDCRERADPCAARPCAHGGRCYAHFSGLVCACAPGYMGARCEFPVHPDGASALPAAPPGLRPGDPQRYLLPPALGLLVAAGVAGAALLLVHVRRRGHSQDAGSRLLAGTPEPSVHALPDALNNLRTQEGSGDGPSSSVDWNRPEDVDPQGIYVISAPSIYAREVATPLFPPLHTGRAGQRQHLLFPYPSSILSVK

T2: Biotinylated human DLL3 (human, UniProt Q9NYJ7 27-492, biotinylated (site not stated))
T2 construct: also called Delta-like ligand 3; Delta Like Canonical Notch Ligand 3
T2 sequence (looked up): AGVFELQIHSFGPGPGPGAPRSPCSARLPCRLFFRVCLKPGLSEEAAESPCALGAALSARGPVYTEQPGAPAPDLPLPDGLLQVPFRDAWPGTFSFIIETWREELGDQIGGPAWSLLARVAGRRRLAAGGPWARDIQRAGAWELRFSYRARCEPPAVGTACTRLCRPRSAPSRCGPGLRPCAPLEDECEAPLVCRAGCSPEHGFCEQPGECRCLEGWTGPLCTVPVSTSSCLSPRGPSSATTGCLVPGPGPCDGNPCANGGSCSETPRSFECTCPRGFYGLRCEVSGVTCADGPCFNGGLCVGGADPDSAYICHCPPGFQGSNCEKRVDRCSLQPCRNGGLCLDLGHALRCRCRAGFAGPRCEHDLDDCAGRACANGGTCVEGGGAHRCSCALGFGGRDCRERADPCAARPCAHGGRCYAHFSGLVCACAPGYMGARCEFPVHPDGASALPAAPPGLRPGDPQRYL

B1: Cpd #8 (peptide)
peptide: Ac-[dA]SDCWLQWNCPFD-NH2
modifications: disulfide 4-10
B2: Cpd #27 (peptide)
peptide: Ac-MSDCWLQWNCAFD-NH2
modifications: disulfide 4-10
SMILES: CSCC[C@H](NC(C)=O)C(=O)N[C@@H](CO)C(=O)N[C@@H](CC(=O)O)C(=O)N[C@H]1CSSC[C@@H](C(=O)N[C@@H](C)C(=O)N[C@@H](Cc2ccccc2)C(=O)N[C@@H](CC(=O)O)C(N)=O)NC(=O)[C@H](CC(N)=O)NC(=O)[C@H](Cc2c[nH]c3ccccc23)NC(=O)[C@H](CCC(N)=O)NC(=O)[C@H](CC(C)C)NC(=O)[C@H](Cc2c[nH]c3ccccc23)NC1=O
B3: Cpd #19 (peptide)
peptide: Ac-ASDCWLQWNCPFD-NH2
modifications: disulfide 4-10
SMILES: CC(=O)N[C@@H](C)C(=O)N[C@@H](CO)C(=O)N[C@@H](CC(=O)O)C(=O)N[C@H]1CSSC[C@@H](C(=O)N2CCC[C@H]2C(=O)N[C@@H](Cc2ccccc2)C(=O)N[C@@H](CC(=O)O)C(N)=O)NC(=O)[C@H](CC(N)=O)NC(=O)[C@H](Cc2c[nH]c3ccccc23)NC(=O)[C@H](CCC(N)=O)NC(=O)[C@H](CC(C)C)NC(=O)[C@H](Cc2c[nH]c3ccccc23)NC1=O
B4: Cpd #22 (peptide)
peptide: Ac-MSDCALQWNCPFD-NH2
modifications: disulfide 4-10
SMILES: CSCC[C@H](NC(C)=O)C(=O)N[C@@H](CO)C(=O)N[C@@H](CC(=O)O)C(=O)N[C@H]1CSSC[C@@H](C(=O)N2CCC[C@H]2C(=O)N[C@@H](Cc2ccccc2)C(=O)N[C@@H](CC(=O)O)C(N)=O)NC(=O)[C@H](CC(N)=O)NC(=O)[C@H](Cc2c[nH]c3ccccc23)NC(=O)[C@H](CCC(N)=O)NC(=O)[C@H](CC(C)C)NC(=O)[C@H](C)NC1=O
B5: Cpd #12 (peptide)
peptide: Ac-MSDCW[dA]QWNCPFD-NH2
modifications: disulfide 4-10
SMILES: CSCC[C@H](NC(C)=O)C(=O)N[C@@H](CO)C(=O)N[C@@H](CC(=O)O)C(=O)N[C@H]1CSSC[C@@H](C(=O)N2CCC[C@H]2C(=O)N[C@@H](Cc2ccccc2)C(=O)N[C@@H](CC(=O)O)C(N)=O)NC(=O)[C@H](CC(N)=O)NC(=O)[C@H](Cc2c[nH]c3ccccc23)NC(=O)[C@H](CCC(N)=O)NC(=O)[C@@H](C)NC(=O)[C@H](Cc2c[nH]c3ccccc23)NC1=O
B6: Cpd #24 (peptide)
peptide: Ac-MSDCWLAWNCPFD-NH2
modifications: disulfide 4-10
SMILES: CSCC[C@H](NC(C)=O)C(=O)N[C@@H](CO)C(=O)N[C@@H](CC(=O)O)C(=O)N[C@H]1CSSC[C@@H](C(=O)N2CCC[C@H]2C(=O)N[C@@H](Cc2ccccc2)C(=O)N[C@@H](CC(=O)O)C(N)=O)NC(=O)[C@H](CC(N)=O)NC(=O)[C@H](Cc2c[nH]c3ccccc23)NC(=O)[C@H](C)NC(=O)[C@H](CC(C)C)NC(=O)[C@H](Cc2c[nH]c3ccccc23)NC1=O
B7: Cpd #21 (peptide)
peptide: Ac-MSACWLQWNCPFD-NH2
modifications: disulfide 4-10
SMILES: CSCC[C@H](NC(C)=O)C(=O)N[C@@H](CO)C(=O)N[C@@H](C)C(=O)N[C@H]1CSSC[C@@H](C(=O)N2CCC[C@H]2C(=O)N[C@@H](Cc2ccccc2)C(=O)N[C@@H](CC(=O)O)C(N)=O)NC(=O)[C@H](CC(N)=O)NC(=O)[C@H](Cc2c[nH]c3ccccc23)NC(=O)[C@H](CCC(N)=O)NC(=O)[C@H](CC(C)C)NC(=O)[C@H](Cc2c[nH]c3ccccc23)NC1=O
B8: Cpd #28 (peptide)
peptide: Ac-MSDCWLQWNCPAD-NH2
modifications: disulfide 4-10
SMILES: CSCC[C@H](NC(C)=O)C(=O)N[C@@H](CO)C(=O)N[C@@H](CC(=O)O)C(=O)N[C@H]1CSSC[C@@H](C(=O)N2CCC[C@H]2C(=O)N[C@@H](C)C(=O)N[C@@H](CC(=O)O)C(N)=O)NC(=O)[C@H](CC(N)=O)NC(=O)[C@H](Cc2c[nH]c3ccccc23)NC(=O)[C@H](CCC(N)=O)NC(=O)[C@H](CC(C)C)NC(=O)[C@H](Cc2c[nH]c3ccccc23)NC1=O
B9: Cpd #10 (peptide)
peptide: Ac-MS[dA]CWLQWNCPFD-NH2
modifications: disulfide 4-10
SMILES: CSCC[C@H](NC(C)=O)C(=O)N[C@@H](CO)C(=O)N[C@H](C)C(=O)N[C@H]1CSSC[C@@H](C(=O)N2CCC[C@H]2C(=O)N[C@@H](Cc2ccccc2)C(=O)N[C@@H](CC(=O)O)C(N)=O)NC(=O)[C@H](CC(N)=O)NC(=O)[C@H](Cc2c[nH]c3ccccc23)NC(=O)[C@H](CCC(N)=O)NC(=O)[C@H](CC(C)C)NC(=O)[C@H](Cc2c[nH]c3ccccc23)NC1=O
B10: Cpd #9 (peptide)
peptide: Ac-M[dA]DCWLQWNCPFD-NH2
modifications: disulfide 4-10
SMILES: CSCC[C@H](NC(C)=O)C(=O)N[C@H](C)C(=O)N[C@@H](CC(=O)O)C(=O)N[C@H]1CSSC[C@@H](C(=O)N2CCC[C@H]2C(=O)N[C@@H](Cc2ccccc2)C(=O)N[C@@H](CC(=O)O)C(N)=O)NC(=O)[C@H](CC(N)=O)NC(=O)[C@H](Cc2c[nH]c3ccccc23)NC(=O)[C@H](CCC(N)=O)NC(=O)[C@H](CC(C)C)NC(=O)[C@H](Cc2c[nH]c3ccccc23)NC1=O

Target: T1, human DLL3
Assay: Affinity determination by Surface Plasmon Resonance (SPR), Biacore, 1:1 binding model
Conditions: biotinylated human DLL3 on streptavidin chip, 25° C.; NB = nonbinding
Summary of the method: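 SPR with biotinylated human DLL3 captured on a streptavidin chip, with a reference surface subtracted. Samples were injected at several concentrations at 100 μL/min in phosphate buffer with 137 mM NaCl, 2.7 mM KCl, 0.05% P20 and 2% DMSO. Kinetic and affinity constants came from a 1:1 binding fit.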

Kd | SPR KD (nM) | Molecule
> 100 nM | – | CC(=O)N[C@@H](CC1CCNCC1)C(=O)N[C@@H](CO)C(=O)N[C@@H](CC(=O)O)C(=O)N[C@H]1C/C=C\C[C@H](C(=O)N2CCC[C@@]2(C)C(=O)N[C@@H](Cc2ccccc2)C(=O)N[C@@H](CC(=O)O)C(N)=O)NC(=O)[C@H](CC(N)=O)NC(=O)[C@H](Cc2ccc3ccccc3c2)NC(=O)[C@H](Cc2ccc(CNC(=O)CN3CCN(CC(=O)O)CCN(CC(=O)O)CCN(CC(=O)O)CC3)cc2)NC(=O)[C@H](CC(C)(C)C)NC(=O)[C@H](Cc2cccc3ccccc23)NC1=O [compound 211, Ac-[3-(4-piperidinyl)-Ala]-S-D-AllyG(4)-(1Nal)-(t-Bu-Ala)-[PAF(DOTA)]-(2Nal)-N-D-AllyG(4)-(aMe-P)-F-D-CONH2] (Ac-[Ala(piperidin-4-yl)]SD[AllylGly][1Nal][tBuAla][Phe(4-CH2NH2)](DOTA)[2Nal]N[dAllylGly][αMeP]FD-NH2; staple (Z) 4-10)
> 100 nM | – | CC(=O)N[C@@H](CC1CCNCC1)C(=O)N[C@@H](CO)C(=O)N[C@@H](CC(=O)O)C(=O)N[C@@H]1C/C=C/C[C@H](C(=O)N2CCC[C@@]2(C)C(=O)N[C@@H](Cc2ccccc2)C(=O)N[C@@H](CC(=O)O)C(N)=O)NC(=O)[C@H](CC(N)=O)NC(=O)[C@H](Cc2ccc3ccccc3c2)NC(=O)[C@H](Cc2ccc(CNC(=O)CN3CCN(CC(=O)O)CCN(CC(=O)O)CCN(CC(=O)O)CC3)cc2)NC(=O)[C@H](CC(C)(C)C)NC(=O)[C@H](Cc2cccc3ccccc23)NC1=O [compound 212, Ac-[3-(4-piperidinyl)-Ala]-S-D-D-AllyG(4)-(1Nal)-(t-Bu-Ala)-[PAF(DOTA)]-(2Nal)-N-D-AllyG(4)-(aMe-P)-F-D-CONH2] (Ac-[Ala(piperidin-4-yl)]SD[dAllylGly][1Nal][tBuAla][Phe(4-CH2NH2)](DOTA)[2Nal]N[dAllylGly][αMeP]FD-NH2; staple (E) 4-10)
0.419 nM | – | CC(=O)N[C@@H](CO)C(=O)N[C@@](C)(CC(=O)O)C(=O)N[C@H]1CCCC[C@@H](C(=O)N2CCC[C@@]2(C)C(=O)N[C@@H](Cc2ccccc2)C(=O)N[C@@H](CC(=O)O)C(N)=O)NC(=O)[C@H](CC(N)=O)NC(=O)[C@H](Cc2ccc3ccccc3c2)NC(=O)[C@H](Cc2ccc(CNC(=O)CN3CCN(CC(=O)O)CCN(CC(=O)O)CCN(CC(=O)O)CC3)cc2)NC(=O)[C@H](CC(C)(C)C)NC(=O)[C@H](Cc2cccc3ccccc23)NC1=O [compound 213, Ac-S-(aMe-Asp)-AllyG(4)*-(1Nal)-(t-Bu-Ala)-[PAF(DOTA)]-(2Nal)-N-AllyG(4)*-(aMe-P)-F-D-CONH2]
– | slow kon | Ac-(Chg)-S-D-C(3)-(1Nal)-(THPG)-Q-W-N-C(3)-(aMe-P)-F-D-D-Lys(DOTA)-CONH2 [compound 128]

Target: T2, Biotinylated human DLL3
Assay: SPR, biotin-hDLL3 on SA chip
Conditions: not given

Kd | binding result | Molecule
8.5 nM | – | B1
– | no binding | B2
21 nM | – | B3
– | no binding | B4
63 nM | – | B5
4.9 nM | – | B6
80 nM | – | B7
– | no binding | B8
116 nM | – | B9
35.1 nM | – | B10
